Reference: patent publication US9176064B2, “Bisubstrate fluorescent probes for protein kinase CK2” (University of Tartu, priority 2012, dated 2015)
Where a SMILES comes first, the peptide text is derived from it. [ ]: non-standard residue; d: D form. The star is where a group is joined. X1 = O=C(CCCCCCCn1cnc2c(Br)c(Br)c(Br)c(Br)c21)*

Columns and labels:
Test in all cases: Kinase panel residual activity
Format in all cases: biochemical
Conditions in all cases: compound at 1 micromolar
TAO1 = molecular target: T1, TAO1 (Homo sapiens, UniProt Q7L7X3)
T1 sequence (Q7L7X3 1-1001): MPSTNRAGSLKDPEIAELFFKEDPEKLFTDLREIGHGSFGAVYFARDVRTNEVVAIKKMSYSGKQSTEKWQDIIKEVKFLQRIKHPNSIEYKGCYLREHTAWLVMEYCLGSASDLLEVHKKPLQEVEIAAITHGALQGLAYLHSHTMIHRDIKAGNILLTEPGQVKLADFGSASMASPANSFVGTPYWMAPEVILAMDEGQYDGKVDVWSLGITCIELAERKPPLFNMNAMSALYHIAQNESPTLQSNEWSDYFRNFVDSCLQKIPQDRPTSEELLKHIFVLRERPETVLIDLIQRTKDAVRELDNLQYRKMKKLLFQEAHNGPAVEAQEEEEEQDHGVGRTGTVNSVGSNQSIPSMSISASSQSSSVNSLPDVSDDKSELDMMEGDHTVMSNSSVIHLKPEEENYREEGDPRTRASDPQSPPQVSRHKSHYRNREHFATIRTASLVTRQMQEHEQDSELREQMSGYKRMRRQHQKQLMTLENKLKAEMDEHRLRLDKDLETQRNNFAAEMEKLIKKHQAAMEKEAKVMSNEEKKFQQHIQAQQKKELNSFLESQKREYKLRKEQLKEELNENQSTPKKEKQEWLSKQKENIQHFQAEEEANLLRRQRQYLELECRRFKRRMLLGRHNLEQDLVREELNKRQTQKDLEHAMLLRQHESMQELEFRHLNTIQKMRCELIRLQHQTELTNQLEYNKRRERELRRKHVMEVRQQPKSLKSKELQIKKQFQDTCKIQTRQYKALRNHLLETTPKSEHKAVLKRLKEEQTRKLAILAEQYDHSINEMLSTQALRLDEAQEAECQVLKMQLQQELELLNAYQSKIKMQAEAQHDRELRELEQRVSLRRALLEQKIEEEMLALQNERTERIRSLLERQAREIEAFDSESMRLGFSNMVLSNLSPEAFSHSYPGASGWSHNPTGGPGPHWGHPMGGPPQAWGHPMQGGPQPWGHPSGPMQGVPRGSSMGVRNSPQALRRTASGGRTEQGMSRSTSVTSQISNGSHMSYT

DYRK2 = molecular target: T2, DYRK2 (Homo sapiens, UniProt Q92630)
T2 sequence (Q92630 1-601): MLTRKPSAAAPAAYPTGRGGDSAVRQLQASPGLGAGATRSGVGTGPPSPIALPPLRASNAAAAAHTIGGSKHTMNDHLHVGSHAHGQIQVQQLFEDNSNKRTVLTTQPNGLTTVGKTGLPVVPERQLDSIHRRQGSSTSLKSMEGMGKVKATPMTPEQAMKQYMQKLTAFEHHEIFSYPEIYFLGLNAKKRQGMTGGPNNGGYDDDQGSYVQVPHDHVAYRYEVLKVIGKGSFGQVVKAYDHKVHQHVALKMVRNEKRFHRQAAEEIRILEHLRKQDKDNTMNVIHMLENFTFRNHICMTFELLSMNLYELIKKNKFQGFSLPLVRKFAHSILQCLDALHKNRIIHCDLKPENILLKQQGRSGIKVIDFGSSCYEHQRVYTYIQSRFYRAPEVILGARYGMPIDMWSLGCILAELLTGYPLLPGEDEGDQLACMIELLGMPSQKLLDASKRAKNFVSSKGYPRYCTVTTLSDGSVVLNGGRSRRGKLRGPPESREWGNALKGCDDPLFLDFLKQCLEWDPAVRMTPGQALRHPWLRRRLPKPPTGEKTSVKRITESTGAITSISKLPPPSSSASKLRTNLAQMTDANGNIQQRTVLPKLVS

PRAK = molecular target: T3, PRAK (Homo sapiens, UniProt Q8IW41)
T3 sequence (Q8IW41 1-473): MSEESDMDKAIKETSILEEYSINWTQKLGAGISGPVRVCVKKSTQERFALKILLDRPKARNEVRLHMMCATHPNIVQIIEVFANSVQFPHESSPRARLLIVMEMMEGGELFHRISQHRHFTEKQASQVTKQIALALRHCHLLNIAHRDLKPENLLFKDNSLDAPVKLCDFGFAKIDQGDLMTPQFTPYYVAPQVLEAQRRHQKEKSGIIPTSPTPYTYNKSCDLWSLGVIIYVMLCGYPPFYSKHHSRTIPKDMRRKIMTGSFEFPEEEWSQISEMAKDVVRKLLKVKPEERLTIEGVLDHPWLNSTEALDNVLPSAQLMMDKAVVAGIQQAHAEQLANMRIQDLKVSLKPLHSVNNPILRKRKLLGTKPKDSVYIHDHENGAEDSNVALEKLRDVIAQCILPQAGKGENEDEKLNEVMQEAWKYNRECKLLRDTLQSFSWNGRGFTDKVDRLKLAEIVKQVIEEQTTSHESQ

MAPKAP-K2 = MAPKAP-K2 (Homo sapiens, UniProt P49137)
NUAK1 = molecular target: T4, NUAK1 (Homo sapiens, UniProt O60285)
T4 sequence (O60285 1-661): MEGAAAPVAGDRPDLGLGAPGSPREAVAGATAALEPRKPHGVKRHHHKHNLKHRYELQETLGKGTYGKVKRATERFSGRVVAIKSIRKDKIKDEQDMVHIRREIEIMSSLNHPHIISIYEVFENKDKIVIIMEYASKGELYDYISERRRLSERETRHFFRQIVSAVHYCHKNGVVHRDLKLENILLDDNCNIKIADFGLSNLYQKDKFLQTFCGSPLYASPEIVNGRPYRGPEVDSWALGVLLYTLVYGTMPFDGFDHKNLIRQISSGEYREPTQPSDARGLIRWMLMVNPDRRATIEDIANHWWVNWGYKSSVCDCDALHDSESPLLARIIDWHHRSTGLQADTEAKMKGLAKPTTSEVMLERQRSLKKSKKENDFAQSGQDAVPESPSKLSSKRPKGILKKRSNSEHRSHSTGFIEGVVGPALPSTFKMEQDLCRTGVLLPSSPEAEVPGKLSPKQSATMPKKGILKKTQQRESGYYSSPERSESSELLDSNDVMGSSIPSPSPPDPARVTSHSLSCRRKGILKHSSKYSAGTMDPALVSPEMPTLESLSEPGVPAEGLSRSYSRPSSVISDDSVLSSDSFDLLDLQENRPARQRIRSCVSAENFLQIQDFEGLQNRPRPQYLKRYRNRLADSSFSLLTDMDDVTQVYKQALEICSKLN

MAPKAP-K2, sequence (P49137 whole entry, species assumed): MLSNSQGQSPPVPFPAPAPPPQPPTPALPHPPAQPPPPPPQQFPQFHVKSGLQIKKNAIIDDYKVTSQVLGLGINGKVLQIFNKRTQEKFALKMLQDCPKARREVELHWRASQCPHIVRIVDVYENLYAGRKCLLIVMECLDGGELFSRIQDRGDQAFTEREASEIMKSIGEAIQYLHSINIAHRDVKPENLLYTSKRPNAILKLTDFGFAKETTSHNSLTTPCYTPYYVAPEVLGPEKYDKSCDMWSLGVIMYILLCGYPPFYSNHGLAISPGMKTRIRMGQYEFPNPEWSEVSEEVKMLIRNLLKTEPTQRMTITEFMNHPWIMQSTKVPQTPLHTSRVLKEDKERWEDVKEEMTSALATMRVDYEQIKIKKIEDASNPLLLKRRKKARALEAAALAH

Which results are given for NCCCC[C@H](NC(=O)[C@H](CC(=O)O)NC(=O)[C@H](CC(=O)O)NC(=O)[C@H](CC(=O)O)NC(=O)[C@H](CC(=O)O)NC(=O)[C@H](CC(=O)O)NC(=O)[C@@H](CC(=O)O)NC(=O)CCCCCCCn1cnc2c(Br)c(Br)c(Br)c(Br)c21)C(=O)O [TBBI-OcA-(D-Asp)-(L-Asp)5-(L-Lys)-OH] (X1-[dD]DDDDDK-OH)?
remaining activity at 1 µM (TAO1): 84%; remaining activity at 1 µM (DYRK2): 17%; remaining activity at 1 µM (PRAK): 74%; remaining activity at 1 µM (MAPKAP-K2): 89%; remaining activity at 1 µM (NUAK1): 58%
